Measured values as given in the Human Domainome abundance scans (Beltran et al. 2025).
± gives the uncertainty stated by the source.

B1: Histidine--tRNA ligase, cytoplasmic, residues 8 to 45; numbered along this chain, P12081 (parent)
chain: EELVKLQGERVRGLKQQKASAELIEEEVAKLLKLKAQL

Variants of: B1
Test: abundance fitness (aPCA) (normalised: wild type 0, dead -1); higher = more abundant; growth selection in yeast, the domain comes from the species named
Settings: Homo sapiens

Abundance fitness, by site and new letter:
A21: L -0.058 ± 0.096, V -0.161 ± 0.082, P 0.184 ± 0.072, T -0.006 ± 0.11, M 0.116 ± 0.12, Y -0.208 ± 0.11, D 0.13 ± 0.097, F -0.075 ± 0.11, K 0.055 ± 0.21, C -0.202 ± 0.17, S 0.072 ± 0.096, G -0.151 ± 0.078, W -0.49 ± 0.12, I -0.101 ± 0.12, E 0.085 ± 0.2, Q 0.039 ± 0.13, N 0.119 ± 0.13, H -0.004 ± 0.086, R -0.086 ± 0.071
G8: D 0.054 ± 0.097, A 0.101 ± 0.09, C -1.04 ± 0.1, H -0.409 ± 0.1, R -0.04 ± 0.082, T 0.217 ± 0.1, Y -0.285 ± 0.094, S 0.074 ± 0.068, Q 0.194 ± 0.11, E 0.44 ± 0.11, V 0.085 ± 0.098, W -0.452 ± 0.27, L -0.002 ± 0.075, N -0.075 ± 0.09, F -0.287 ± 0.12, M 0.106 ± 0.15, I 0.086 ± 0.12, P -0.25 ± 0.094, K 0.377 ± 0.27
K5: Y -0.27 ± 0.079, W -0.383 ± 0.13
E22: I -0.156 ± 0.1, F -0.311 ± 0.091, R -0.023 ± 0.079, Y -0.288 ± 0.11, A 0.069 ± 0.081, G -0.03 ± 0.096, K 0.075 ± 0.12, T 0.091 ± 0.08, N 0.055 ± 0.12, W -0.577 ± 0.16, M -0.046 ± 0.094, H -0.156 ± 0.14, L -0.149 ± 0.081, C -0.107 ± 0.096, D 0.04 ± 0.1, P -0.007 ± 0.1, Q 0.13 ± 0.1, V 0.052 ± 0.1
Q7: A -0.348 ± 0.082, H -0.507 ± 0.086, W -1.15 ± 0.12, L -0.515 ± 0.074, R -0.649 ± 0.081, S -0.433 ± 0.068, T -0.357 ± 0.073, K -0.693 ± 0.18, Y -0.706 ± 0.091, P -0.595 ± 0.078, F -0.73 ± 0.11, G -0.619 ± 0.09, C -0.616 ± 0.096, D -0.492 ± 0.09, V -0.379 ± 0.091, N -0.485 ± 0.12, E -1.63 ± 0.36, I -0.526 ± 0.083, M -0.452 ± 0.092
I24: D 0.055 ± 0.14, K 0 ± 0.09, S -0.171 ± 0.08, R -0.184 ± 0.081, A -0.027 ± 0.078, W -1.01 ± 0.31, F 0.069 ± 0.091, V -0.035 ± 0.078, G -0.068 ± 0.085, L 0.03 ± 0.072, N -0.137 ± 0.1, E -0.151 ± 0.15, Q 0.163 ± 0.09, T -0.012 ± 0.088, H 0.169 ± 0.1, M -0.03 ± 0.077, Y 0.131 ± 0.18
R12: S 0.098 ± 0.084, M -0.216 ± 0.14, V -0.008 ± 0.081, F -0.172 ± 0.089, I -0.077 ± 0.077, E 0.231 ± 0.099, A 0.218 ± 0.083, W -0.018 ± 0.18, D 0.122 ± 0.088, H 0.005 ± 0.075, Q 0.101 ± 0.087, N -0.022 ± 0.089, T 0.05 ± 0.087, L -0.034 ± 0.078, G 0.096 ± 0.13
L6: P -0.211 ± 0.1, M 0.1 ± 0.11, N -0.017 ± 0.1, V 0.054 ± 0.078, C -0.436 ± 0.082, H 0.051 ± 0.099, Y -0.261 ± 0.091, I -0.428 ± 0.22, G -0.171 ± 0.12, E 0.128 ± 0.12, R 0.051 ± 0.098, A 0.194 ± 0.071, Q 0.213 ± 0.09, K 0.155 ± 0.12, F -0.102 ± 0.1, S -0.136 ± 0.076
Q17: V -0.258 ± 0.094, D -0.11 ± 0.12, I -0.388 ± 0.091, L -0.232 ± 0.073, R -0.196 ± 0.073, P -0.369 ± 0.13, S 0.055 ± 0.084, H -0.446 ± 0.19, M 0.052 ± 0.11, G -0.071 ± 0.08, F -0.396 ± 0.085, W -0.5 ± 0.18
S20: G -0.022 ± 0.091, C -0.09 ± 0.095, V -0.693 ± 0.11, R -0.019 ± 0.079, D 0.038 ± 0.073, T -0.132 ± 0.079, K -0.118 ± 0.083, W -1.1 ± 0.1, M -0.431 ± 0.094, L -0.781 ± 0.1, H -0.128 ± 0.11, E 0.068 ± 0.12, F -1.09 ± 0.1, Y -0.945 ± 0.17, N 0.026 ± 0.081, Q -0.057 ± 0.1
K15: S -0.184 ± 0.082, T 0.001 ± 0.081, L -0.13 ± 0.075, W -0.412 ± 0.094, D -0.271 ± 0.14, Q 0.061 ± 0.093, V -0.103 ± 0.087, A -0.107 ± 0.069, E 0.187 ± 0.11, N -0.135 ± 0.093, Y -0.41 ± 0.11, R -0.1 ± 0.073, G -0.274 ± 0.07, F -0.164 ± 0.088, I 0.017 ± 0.095, H -0.127 ± 0.087, M 0.149 ± 0.12, C -0.27 ± 0.093
R10: N -0.198 ± 0.08, T 0.013 ± 0.081, E -0.044 ± 0.093, V 0.039 ± 0.084, K 0.245 ± 0.12, D -0.084 ± 0.14, M -0.06 ± 0.098, S -0.213 ± 0.074, H -0.131 ± 0.12, I -0.035 ± 0.13, P 0.053 ± 0.081, Y -0.125 ± 0.12, W -0.887 ± 0.12, Q -0.097 ± 0.095, F -0.288 ± 0.1, L -0.026 ± 0.073, C -0.379 ± 0.087, G -0.229 ± 0.081
A19: F -0.384 ± 0.12, C -0.034 ± 0.14, Y -0.612 ± 0.15, R -0.255 ± 0.079, L -0.504 ± 0.088, P -0.145 ± 0.1, N -0.406 ± 0.14, W -0.424 ± 0.12, M -0.039 ± 0.13, I -0.538 ± 0.15, T -0.174 ± 0.083, S -0.21 ± 0.082, Q -0.173 ± 0.094, G -0.27 ± 0.076, D -0.285 ± 0.089, E -0.17 ± 0.12, K -0.264 ± 0.18
L14: F -0.4 ± 0.13, G -0.184 ± 0.078, T -0.334 ± 0.1, A 0.064 ± 0.088, M 0.053 ± 0.082, P -0.248 ± 0.088, R -0.332 ± 0.08, S -0.101 ± 0.077, Y -0.458 ± 0.14, C -0.119 ± 0.11, K -0.209 ± 0.12, H -0.397 ± 0.09, Q -0.173 ± 0.11, E 0.053 ± 0.1, W -0.467 ± 0.1, N -0.479 ± 0.14, D -0.24 ± 0.1, I -0.263 ± 0.086
E25: H 0 ± 0.09, C -0.331 ± 0.16, D 0.012 ± 0.097, A 0.128 ± 0.091, I -0.621 ± 0.13, G -0.052 ± 0.077
K18: H 0.239 ± 0.11, V -0.236 ± 0.075, P 0.004 ± 0.082, F -0.45 ± 0.11, G 0.172 ± 0.078, T -0.083 ± 0.099, Q 0.066 ± 0.076, R -0.06 ± 0.074, Y -0.342 ± 0.088, A 0.047 ± 0.085, I -0.375 ± 0.14, C -0.112 ± 0.1, W -0.619 ± 0.13, D 0.221 ± 0.1, M 0.067 ± 0.31
E9: P -0.631 ± 0.074, I -0.716 ± 0.097, C -0.5 ± 0.084, Q -0.379 ± 0.079, D -0.001 ± 0.13, K -0.324 ± 0.11, S -0.291 ± 0.081, Y -0.816 ± 0.1, L -0.466 ± 0.084, G -0.357 ± 0.084, H -0.699 ± 0.11, A -0.186 ± 0.091, M -0.232 ± 0.1, R -0.464 ± 0.086, N 0.035 ± 0.13, F -0.684 ± 0.097, T -0.246 ± 0.075, W -0.726 ± 0.19, V -0.653 ± 0.077
L23: P -0.004 ± 0.086, R -0.001 ± 0.073, Q 0.262 ± 0.1, H -0.075 ± 0.11, T 0.071 ± 0.082, I 0.188 ± 0.12, N -0.04 ± 0.11, S -0.266 ± 0.085, G -0.143 ± 0.083, D -0.072 ± 0.12, K 0.045 ± 0.091, V 0.2 ± 0.082, M 0.243 ± 0.13, Y -0.358 ± 0.091, A -0.037 ± 0.073
Q16: I -0.227 ± 0.076, L -0.057 ± 0.072, F -0.397 ± 0.08, N 0.076 ± 0.1, A 0.144 ± 0.083, C -0.288 ± 0.096, G -0.242 ± 0.079, K -0.004 ± 0.085, V -0.039 ± 0.1, S -0.004 ± 0.078, P -0.223 ± 0.089, D 0.083 ± 0.12, T -0.08 ± 0.095, M 0.028 ± 0.078, E 0.132 ± 0.095, R -0.11 ± 0.082, Y -0.427 ± 0.11, W -0.483 ± 0.12, H -0.134 ± 0.095
G13: F 0.079 ± 0.11, S 0.154 ± 0.082, K 0.168 ± 0.094, V 0.198 ± 0.08, R 0.005 ± 0.072, A 0.23 ± 0.083, L 0.197 ± 0.079, D 0.079 ± 0.11, Y -0.136 ± 0.15, Q 0.253 ± 0.1, W 0.055 ± 0.082, N 0.307 ± 0.19, T 0.218 ± 0.083, I 0.188 ± 0.11, C 0.271 ± 0.085, M 0.324 ± 0.099, P -0.237 ± 0.083, H 0.079 ± 0.094
V11: G -0.121 ± 0.09, Q 0.011 ± 0.091, C -1.51 ± 0.16, N -0.334 ± 0.096, K -0.255 ± 0.094, A -0.169 ± 0.08, H -0.209 ± 0.11, W -0.374 ± 0.17, M -0.106 ± 0.1, P -0.01 ± 0.088, Y -0.552 ± 0.11, R -0.03 ± 0.099, S -0.238 ± 0.075, I -0.011 ± 0.13, F -0.571 ± 0.089, E 0.055 ± 0.15, T -0.127 ± 0.084, L -0.189 ± 0.071
